Measured values taken from the supplement of paper PMC9170038.

The sequences below were run on MS2 coat protein (assay: apparent KD of MS2 coat protein; higher = weaker reporter binding). Conditions: Eterna round: R107; input ligand: theophylline 2 mM.
Protocol: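 RNA-MaP round R107: designed RNA switches with theophylline, tryptophan, arginine or FMN aptamers are transcribed on-chip within common flanks. They are titrated with SNAP-549-labelled MS2 coat protein in RNA-MaP buffer (100 mM Tris pH 7.5, 80 mM KCl, 4 mM MgCl2), without ligand or with the indicated ligand. Median apparent KD per design.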

Sequence	apparent KD of MS2 coat protein
CUCCUGGGAGCGGCCGCCACUGGAGGCCUCGCGCGACAUGAGGAUCACCCAUGUUGGCCCGGCCUCAGGACCGGGUUCGCGCGAG [Same State - Tryptophan B Attempt #3]	0.0106 µM
AAUACCGGAUCGGCCGCCACUGGUUGGCCCUGUGUACAUGAGGAUCACCCAUGUCCAUCCCAAACCAGGACCGGGAUCUUUGUGC [Ededmate]	0.0137 µM
AGCGCAGGUCCUGAUACCAGAGACAUGAGGAUCACCCAUGUCCGGUGGUCCUGCCACAGGCUCCCUUGGCAGCAGGGCUUGUGCU [Exclusion Theophylline B GF9]	0.0605 µM
ACAUGAGGAUCACCCAUGUGUGUAAAUCCUCGAGGACCGGUACGGCCGCCACUCGAACGAGUGUAAGAUGAAUGUUACAUUCAUC [SS Trp A s2]	0.117 µM
GCAUCCUAGUCGGCCGCCACUGCAAUUGUAAUACUGCUACAUGAGGAUCACCCAUGUCCAUGUAGCAGGACCGGGACUAGGAUGC [SS Tryp B #16]	1.24 µM
ACAUGAGGAUCACCCAUGUAAUGGCACGAUACCAGCUGAUCCCGUGGCCCUUGGCAGCGUCCGGUGUGGUCCGGCGGGUUGGACG [LLLMULLIN]	0.0345 µM
ACAUGAGGGCGAAGGAGCGCGAACAUGAGGAUCACCCAUGUCUAUAUCCGUCCGCAUGUAUCGCAGGUAGGUCGCGCUGUUACUU [#13 Exclusion - Arginine B]	0.0085 µM
AAAUAAAUACAUGAGGAUCACCCAUGUGAAGGAGCGCCCGUUAGGGCAGGUAGGUCGCACAUGAAAGGGAAGCGAAAGAAAUAAU [ArgEX 15 #OpenEnded]	0.0165 µM
UGUAUGUGAUCUGAUACCAGCUUUGAUAACCUGAGGAUCACCCUGGUAAGGCGAAAGCCAAGCCCUUGGCAGCAGAUCGCAUACU	0.0219 µM

Same assay, conditions: Eterna round: R107; input ligand: tryptophan 2.4 mM

Sequence	apparent KD of MS2 coat protein
AUAACAUGAGGAUCACCCAUGUAAGCUGAAGGAGCGGACGAAAGUCCAGGUAGGUCGCAGCGUUCCUUCACCUCAUGAGAAGGAG [SSArg-A #30 with U all better]	0.0216 µM
UAAUGCAGGUCGGCCGCCACUACAACAUGAGGAUCACCCAUGUACAUGUUGUAGUACGGUAUGAGUAGGACCGGGACCUGCAUAA [Trp-Ms2-M'-T'-(MT)'_Design1]	0.787 µM
ACGGAUCGGAAACGAUCCGCGGCUAGGGUGCGAGGACCGGUACGGCCGCCACUCGGGUAACAUGAGGAUCACCCAUGUCUGAUUU [ETA NP+V+V2 #14]	0.587 µM
GUAUGGAAACAUACUAUGGUAUCGUGAGAUACCAGUACAGAAAUGUACCCUUGGCAGCUCGCGCAUACAUGAGGAUCACCCAUGU [Ex Theophylline A 10]	0.0195 µM
ACAUGAGGAUCACCCAUGUAUGACUAUCCUCGAGGACCGGUACGGCCGCCACUCGAACGAGUGGCUCGCGAGUGCGCACUUGCGA [5' end]	0.0119 µM
UUUCUUUUCUUUCUUUCCUUUCAAACCGAAGGAGCGGGAACAAACCCAGGUAGGUCGCGGUGUGACAUGAGGAUCACCCAUGUGU [Exclusion - Arginine]	0.0581 µM
UAAUUUAUAGGGUAUAUCAGAUUAACUGAAGGAGCGUGGUAAUACACAGGUAGGUCGCAGAUGGAACAUGAGGAUCACCCAUGUU [JR_ExcArginiA_Sub016]	0.0212 µM
GAGACGUCGGGAAGGAGCGCAUCAAAACCACACAUGAGGAUCACCCAUGUAUAAAUAUGCAUGCAGGUAGGUCGCCCGGUGUCCA [SS-ArgB16]	0.0291 µM
AAAUAAAUAACUGAUACCAGUGUACUGACAUGAGGAUCACCCAUGUUGGGUUUUGUUGUACACCCUUGGCAGCAGAAAUAUAAAA [AstrosExyTheB#1]	0.0379 µM
CCCAAAUAGAUAUUUGGGAUUUUACUCGAAGGAGCGUCAUAGUAGGCAGGUAGGUCGCGAGACAUGAGGAUCACCCAUGUAGAGA [ss-argA-N]	0.0409 µM
GGGAAAGGAGAAGAUACCAGCCGCCUCACAAGUCUACACUACAUGAGGAUCACCCAUGUGGGCCCUUGGCAGCUUGACCGCGAAA [theeternabot_exclusion_MS2_Theo_B_20]	0.0393 µM
UUACAUGAGGAUCACCCAUGUCAUACAGAAGGAGCGUCACAUAAGACAGGUAGGUCGCUGUUAUUUUUUACUAUUAUAUCCUCUA [JR_Nu_ExcArginiA_Sub030]	0.0259 µM
AUCUCAUAGAGUGAUACCAGACUACAUGAGGAUCACCCAUGUUAGAUUUAAAUAUCAUUUGUCCCUUGGCAGCACAUUAAGUACA [JR_Nu_SSTheophyB_Sub021]	0.0127 µM
ACACGUGAGGAUCAUCCAUGUGCCCAUGAAGGAGCGUGGGAAACCACAGGUAGGUCGCAUGACAUGAGGAUCACCCAUGUUUAUU [#04 Exclusion - Arginine A]	0.091 µM
AAUCGGAGAUGAAGGAGCGCGUACAUGAGGAUCACCCAUGUAUCAAAGCUUCUCCCGUGUAUGCAGGUAGGUCGCAUUUCCACGU [Ceriedan]	0.0099 µM
GCGAUACAUGAGGAUCACCCAUGUGCAGAUACCAGAGGUGCAUGCCUCCCUUGGCAGCUGCGACGCUCUGGCAUCUUGUGGGAUG [Same State Theophylline A GF20]	0.0569 µM
AGCCCGUGAGCGGCCGCCACUGGAGGCUUUGCGCGACAUGAGGAUCACCCAUGUGUGCCCGGCGUUAGGACCGGGUUCGCGUGGU [#1 Same State - Tryptophan B Attempt #18 (HarryS)]	0.0324 µM
CUGCCAUGCAGAGAUACCAGUGCGCUCAGCACAUGAGGAUCACCCAUGUCGGCUGCCGAUCACCCUUGGCAGCUCUGCAUGGCAG [?@#$_]	0.0113 µM
CUCCUGGGAGCGGCCGCCACUGGAGGCCUCGCGCGACAUGAGGAUCACCCAUGUUGGCCCGGCCUCAGGACCGGGUUCGCGCGAG [Same State - Tryptophan B Attempt #3]	0.01 µM
GCAUUAUUAUUAGAUACCAGUGUCGCAGGCGACAUGAGGAUCACCCAUGUAAAGUUACUCCACCCUUGGCAGCUAGUUCGACUAC [theeternabot_sameState_MS2_Theo_B_21]	0.101 µM
GAUGAACUAUAUGAUACCAGACAACAUGAGGAUCACCCAUGUGUAUGUCGUCCUCUGCCUGUCCCUUGGCAGCGUAUAGUUUAUC [XTheo B #17]	0.0161 µM
AGCGCAGGUCCUGAUACCAGAGACAUGAGGAUCACCCAUGUCCGGUGGUCCUGCCACAGGCUCCCUUGGCAGCAGGGCUUGUGCU [Exclusion Theophylline B GF9]	0.0291 µM
UCCUCCUCCGCAAGGAGGAGGAGUUGCGAUACCAGCACGGCAACGUGCCCUUGGCAGCGCACAUGAGGAUCACCCAUGUCAUGUU [#1 Exclusion - Theophylline A Attempt #10 (HarryS)]	0.0188 µM
ACUUCAUGAGGUGAUACCAGCCAAUGACAUGAGGACAUGAGGAUCACCCAUGUUUAUGUAGGCCCUUGGCAGCAUUGUAACAUGA [Same State Theophylline B 4]	0.0284 µM
ACAUGAGGAUCACCCAUGUAAUGGCACGAUACCAGCUGAUCCCGUGGCCCUUGGCAGCGUCCGGUGUGGUCCGGCGGGUUGGACG [LLLMULLIN]	0.0174 µM
ACAUGAGGGCGAAGGAGCGCGAACAUGAGGAUCACCCAUGUCUAUAUCCGUCCGCAUGUAUCGCAGGUAGGUCGCGCUGUUACUU [#13 Exclusion - Arginine B]	0.00852 µM
AAAUAAAUACAUGAGGAUCACCCAUGUGAAGGAGCGCCCGUUAGGGCAGGUAGGUCGCACAUGAAAGGGAAGCGAAAGAAAUAAU [ArgEX 15 #OpenEnded]	0.0203 µM
ACGACGCAUAGUGAUACCAGUAGAACAUGAGGAUCACCCAUGUCUGUGACGCACAAACUCUGCCCUUGGCAGCACUAUGCGUCAG [SSTheo B #7]	0.0122 µM
UGUAUGUGAUCUGAUACCAGCUUUGAUAACCUGAGGAUCACCCUGGUAAGGCGAAAGCCAAGCCCUUGGCAGCAGAUCGCAUACU	0.0373 µM
